Where no end group is shown, it is not given here.
B1: Full-length prokaryotic ubiquitin-like protein, Pup1-64-GGQ with a C-terminal non-cleavable His6-tag (natural protein)
chain: MAQEQTKRGGGGGDDDDIAGSTAAGQERREKLTEETDDLLDEIDDVLEENAEDFVRAYVQKGGQ
B2: Mpa coiled-coil domain, residues 46-96 (Mpa46-96) (domain or fragment)
chain: SHAPTRSARDIHQLEARIDSLAARNSKLMETLKEARQQLLALREEVDRLGQ

Tests used:
Assay in all cases: […]
[1] = molecular target: T1, Mpa residues 1-96 (Mpa1-96) (Mycobacterium tuberculosis, UniProt P9WQN5 1-96)
T1 sequence: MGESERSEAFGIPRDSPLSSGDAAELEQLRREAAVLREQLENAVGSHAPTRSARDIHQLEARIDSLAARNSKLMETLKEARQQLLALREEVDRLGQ

[2] = molecular target: B1
[3] = molecular target: B2

B1: binds [1].

B2: binds [2].

{His6‑tag}-STAAGQERREKLTEETDDLLDEIDDVLEENAEDFVRAYVQKGGE (domain or fragment, not fully specified) [N-terminal truncated prokaryotic ubiquitin-like protein, Pup21-64-GGE with an N-terminal His6-tag]: binds [3].
